We go through one protein from US20120028912.

This series concerns the target T1, HIV-1 Tat protein, wild type.
T1 chain: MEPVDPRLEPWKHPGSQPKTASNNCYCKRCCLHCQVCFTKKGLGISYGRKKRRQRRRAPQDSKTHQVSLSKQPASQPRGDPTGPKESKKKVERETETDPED

B1: p300/CBP-associated factor (P/CAF), HA-tagged (protein)
chain: MSEAGGAGPGGCGAGAGAGAGPGALPPQPAALPPAPPQGSPCAAAAGGSGACGPATAVAAAGTAEGPGGGGSARIAVKKAQLRSAPRAKKLEKLGVYSACKAEESCKCNGWKNPNPSPTPPRADLQQIIVSLTESCRSCSHALAAHVSHLENVSEEEMNRLLGIVLDVEYLFTCVHKEEDADTKQVYFYLFKLLRKSILQRGKPVVEGSLEKKPPFEKPSIEQGVNNFVQYKFSHLPAKERQTIVELAKMFLNRINYWHLEAPSQRRLRSPNDDISGYKENYTRWLCYCNVPQFCDSLPRYETTQVFGRTLLRSVFTVMRRQLLEQARQEKDKLPLEKRTLILTHFPKFLSMLEEEVYSQNSPIWDQDFLSASSRTSQLGIQTVINPPPVAGTISYNSTSSSLEQPNAGSSSPACKASSGLEANPGEKRKMTDSHVLEEAKKPRVMGDIPMELINEVMSTITDPAAMLGPETNFLSAHSARDEAARLEERRGVIEFHVVGNSLNQKPNKKILMWLVGLQNVFSHQLPRMPKEYITRLVFDPKHKTLALIKDGRVIGGICFRMFPSQGFTEIVFCAVTSNEQVKGYGTHLMNHLKEYHIKHDILNFLTYADEYAIGYFKKQGFSKEIKIPKTKYVGYIKDYEGATLMGCELNPRIPYTEFSVIIKKQKEIIKKLIERKQAQIRKVYPGLSCFKDGVRQIPIESIPGIRETGWKPSGKEKSKEPRDPDQLYSTLKSILQQVKSHQSAWPFMEPVKRTEAPGYYEVIRFPMDLKTMSERLKNRYYVSKKLFMADLQRVFTNCKEYNAAESEYYKCANILEKFFFSKIKEAGLIDK
Consider B1, for which the “Superinduction of Tat transactivation activity” value was “as much as a 30-fold increase upon P/CAF stimulation”.
